Laboratory results published in article doi:10.1101/2025.10.20.683411 (bioRxiv, 2025).

T1: hNup153 (aa875-1475) (human, UniProt P49790 875-1475, fluorescein-5-maleimide label (labelled protein mixed with unlabelled protein))
T1 sequence: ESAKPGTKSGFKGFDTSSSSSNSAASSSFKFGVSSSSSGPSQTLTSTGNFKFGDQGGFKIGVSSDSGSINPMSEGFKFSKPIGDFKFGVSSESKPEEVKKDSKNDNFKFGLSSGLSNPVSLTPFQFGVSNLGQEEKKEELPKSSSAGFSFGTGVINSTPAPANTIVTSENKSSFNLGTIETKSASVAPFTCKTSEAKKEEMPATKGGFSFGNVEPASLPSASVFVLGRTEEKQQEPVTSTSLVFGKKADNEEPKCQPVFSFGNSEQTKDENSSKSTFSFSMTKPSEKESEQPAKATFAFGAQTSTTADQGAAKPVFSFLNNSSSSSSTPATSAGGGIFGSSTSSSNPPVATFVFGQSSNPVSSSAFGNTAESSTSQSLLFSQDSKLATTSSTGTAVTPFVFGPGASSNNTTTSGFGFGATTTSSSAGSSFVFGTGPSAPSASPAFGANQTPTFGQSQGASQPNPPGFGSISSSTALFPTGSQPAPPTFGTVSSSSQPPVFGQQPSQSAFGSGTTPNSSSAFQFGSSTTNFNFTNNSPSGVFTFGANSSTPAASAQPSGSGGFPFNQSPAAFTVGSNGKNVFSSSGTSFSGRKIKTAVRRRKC


How the values were obtained:
[1] = biological target: the molecule itself; experiment: fluorescence microscopy of particles formed by one purified labelled protein
yNup116FG (aa1-725) = yNup116FG (aa1-725) (yeast, UniProt Q02630 1-725, fluorescein-5-maleimide label (labelled protein mixed with unlabelled protein)); experiment: fluorescence microscopy of particles formed by mixed purified labelled proteins
yNup100FG (aa1-580) = yNup100FG (aa1-580) (yeast, UniProt Q02629 1-580, fluorescein-5-maleimide label (labelled protein mixed with unlabelled protein)); experiment: as above
hNup153 (aa875-1475) = biological target: T1, hNup153 (aa875-1475); experiment: as above
[2] = biological target: the molecule itself; experiment: as above

binding result (yNup116FG (aa1-725)) | binding result (yNup100FG (aa1-580)) | binding result (hNup153 (aa875-1475)) | Binder | binding result [1] | binding result [2]
binds | binds | binds | DNAJB6 isoform b, wildtype (natural protein, Alexa Fluor 594 C5-maleimide label (labelled protein mixed with unlabelled protein)) not shown | binds | –
binds | binds | binds | DNAJB8 (natural protein, human, Alexa Fluor 594 C5-maleimide label (labelled protein mixed with unlabelled protein)) MANYYEVLGVQASASPEDIKKAYRKLALRWHPDKNPDNKEEAEKKFKLVSEAYEVLSDSKKRSLYDRAGCDSWRAGGGASTPYHSPFDTGYTFRNPEDIFREFFGGLDPFSFEFWDSPFNSDRGGRGHGLRGAFSAGFGEFPAFMEAFSSFNMLGCSGGSHTTFSSTSFGGSSSGSSGFKSVMSSTEMINGHKVTTKRIVENGQERVEVEEDGQLKSVTVNGKEQLKWMDSKC | – | binds
binds | binds | binds | DNAJB2 isoform a (natural protein, human, Alexa Fluor 594 C5-maleimide label (labelled protein mixed with unlabelled protein)) MASYYEILDVPRSASADDIKKAYRRKALQWHPDKNPDNKEFAEKKFKEVAEAYEVLSDKHKREIYDRYGREGLTGTGTGPSRAEAGSGGPGFTFTFRSPEEVFREFFGSGDPFAELFDDLGPFSELQNRGSRHSGPFFTFSSSFPGHSDFSSSSFSFSPGAGAFRSVSTSTTFVQGRRITTRRIMENGQERVEVEEDGQLKSVTINGVPDDLALGLELSRREQQPSVTSRSGGTQVQQTPASCPLDSDLSEDEDLQLAMAYSLSEMEAAGKKPADVFC | – | binds
